The series concerns the molecule itself. As to the kind of experiment: SEC; elution profiles of proSP-C BRICHOS WT and T187R. In general terms: In gel filtration, larger molecules generally elute earlier.

B1: proSP-C BRICHOS WT (domain or fragment, human, UniProt P11686 59-197, looked up)
chain: HMSQKHTEMVLEMSIGAPEAQQRLALSEHLVTTATFSIGSTGLVVYDYQQLLIAYKPAPGTCCYIMKIAPESIPSLEALTRKVHNFQMECSLQAKPAVPTSKLGQAEGRDAGSAPSGGDPAFLGMAVSTLCGEVPLYYI
notes: human proSP-C (surfactant protein C precursor), BRICHOS domain, residues 59-197 of UniProt P11686; Mainly trimeric; The mutant's mass of 18328 Da is larger than residues 59-197 alone would give, so the construct probably carries extra residues (surmise); also called proSP-C BRICHOS domain; WT proSP-C BRICHOS domain
Regarding B1, the binding result is listed as “binds”.

(Values after publication PMC8028046 (Biochemistry, 2021).)
